For 1 molecule, Kd results are on record in doi:10.1101/2021.12.03.471045 (bioRxiv, 2021).

This test has as its target early pandemic (Wuhan) SARS-CoV-2 RBD (SARS-CoV-2, UniProt P0DTC2). The test can be described thus: SPR. Conditions: both partners purified.

B1: EY6A mAb (IgG) (antibody, V domains shown)
VH: EVQLVESGGGVVQPGRSLRLSCAASAFTFSSYDMHWVRQAPGKGLEWVAVISYDGSNKYYADSVKGRFTISRDNSKNTLYLQMNSLRAEDTAVYYCAKDGGKLWVYYFDYWGQGTLVTVSS
VL: not shown
For the molecule B1, the Kd was determined as 7.8 nM.
